{"source": "patent EP4692127A1", "about": "(Kangma-Healthcode (Shanghai) Biotech Co., Ltd, dated 2026)", "binders": {"B1": {"name": "Commercially available Tislelizumab (antibody, human IgG4 S228P, kappa)", "heavy": "QVQLQESGPGLVKPSETLSLTCTVSGFSLTSYGVHWIRQPPGKGLEWIGVIYADGSTNYNPSLKSRVTISKDTSKNQVSLKLSSVTAADTAVYYCARAYGNYWYIDVWGQGTTVTVSSASTKGPSVFPLAPCSRSTSESTAALGCLVKDYFPEPVTVSWNSGALTSGVHTFPAVLQSSGLYSLSSVVTVPSSSLGTKTYTCNVDHKPSNTKVDKRVESKYGPPCPPCPAPPVAGGPSVFLFPPKPKDTLMISRTPEVTCVVVAVSQEDPEVQFNWYVDGVEVHNAKTKPREEQFNSTYRVVSVLTVVHQDWLNGKEYKCKVSNKGLPSSIEKTISKAKGQPREPQVYTLPPSQEEMTKNQVSLTCLVKGFYPSDIAVEWESNGQPENNYKTTPPVLDSDGSFFLYSKLTVDKSRWQEGNVFSCSVMHEALHNHYTQKSLSLSLGK", "light": "DIVMTQSPDSLAVSLGERATINCKSSESVSNDVAWYQQKPGQPPKLLINYAFHRFTGVPDRFSGSGYGTDFTLTISSLQAEDVAVYYCHQAYSSPYTFGQGTKLEIKRTVAAPSVFIFPPSDEQLKSGTASVVCLLNNFYPREAKVQWKVDNALQSGNSQESVTEQDSKDSTYSLSSTLTLSKADYEKHKVYACEVTHQGLSSPVTKSFNRGEC"}}, "biological_target": "recombinant human PD-1 protein (human, UniProt Q15116 25-167)", "sequence (Q15116 25-167 limits assumed)": "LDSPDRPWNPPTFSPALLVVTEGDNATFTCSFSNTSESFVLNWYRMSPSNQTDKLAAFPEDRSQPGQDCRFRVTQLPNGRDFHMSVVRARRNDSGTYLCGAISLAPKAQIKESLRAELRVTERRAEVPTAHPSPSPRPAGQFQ", "test": "indirect ELISA, recombinant human PD-1 coated, HRP anti-human IgG (Fab specific), 4-parameter fit"}
{"binder": "B1", "values": [{"measurement": "EC50", "result": 0.0143, "unit": "µg/mL"}]}
